This data set deals with MS2 coat protein. Kind of data set: apparent KD of MS2 coat protein; designed switch direction (-1 OFF switch, 1 ON switch): -1; higher = weaker reporter binding. In a few lines: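 An oligonucleotide input, 200 uM small-molecule ligand, or no input was present during titration of SNAP-549-labelled MS2 coat protein, which was doubled from 0.7 or 1.5 nM to 3 µM. Designed RNA switches had been transcribed on Illumina chips by stalled E. coli RNA polymerase. Apparent KD per design is the median over clusters of curves fitted to normalised cluster fluorescence.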

Setting [1] is: Eterna round: R95, input ligand: FMN 200 uM.
Where [2] appears, read: Eterna round: R95, input ligand: microRNA oligo, concentration not stated.
[3] abbreviates: Eterna round: R95, input ligand: none.

This note sets out measurements from the supplement of paper PMC9170038.

Turning to “GAAGUGCACAUGAGGAUCACCCAUGUGGGUGAGCCGUGCCUGAAGGAUAUGGCUCCCGAUGGAGACCAGAAGGUCAGUAAAUAA [Ededor] (Eterna round: R96, puzzle: Exclusion NG 3)”, the “apparent KD of MS2 coat protein” value runs as follows: (input ligand: FMN 200 uM) 367 nM; (input ligand: microRNA oligo, concentration not stated) 276 nM; (input ligand: none) 1030 nM.

For “GAAUACAAGUAAAGAUCCUACAUGAGGAUCACCCAUGUGCUCGUCUUGUAAAGUACUAUCACGAAAGUGAUAGUACA [Mat - Sensor v3 - turn-off var 1 - Eli Mod - D88] (puzzle: Sensor v3, turn-off variant 1)”, the “apparent KD of MS2 coat protein” value was found to be 53.8 nM under setting [1], 159 nM under setting [2] and 47.1 nM under setting [3].

Take “GAAUAGAGAGGAUAUGCAAUGAAGGUAGUACGAUAUAUCUGACAUGAGGAUCACCCAUGUAGAAGGCUCAGAUC [EX2 #8] (Eterna round: R97, puzzle: Exclusion 2)”: the “apparent KD of MS2 coat protein” value was found to be 29.2 nM (input ligand: FMN 200 uM) and 29.3 nM (input ligand: none).

In the case of “GAAUAGCAAGCGAGAUCCCACAUGAGGAUCACCCAUGUGCUCGUCUUAUAAAGUACUGUGACGAUAGUCACGGUACA [Mat - Sensor, turn-off var - Eli Mod - D13] (Eterna round: R97, puzzle: Sensor, turn-off variant 1)”, the “apparent KD of MS2 coat protein” value reads like this: (input ligand: FMN 200 uM) 16.5 nM; (input ligand: none) 14.9 nM.

With “GAAUAGCGAGGAUAUACAUGAGGAUCACCCAUGUGAUCCUUAGGCUGUUCAAGCCUAUGUAGAAGGCGCAAAUU [jl-ex3.4.56 ViennaUCT mod] (Eterna round: R97, puzzle: Exclusion 3)”, the “apparent KD of MS2 coat protein” value runs as follows: (input ligand: FMN 200 uM) 86.2 nM; (input ligand: none) 335 nM.

Turning to “GAAUGAGAGCAGGAUAUCUUAUAAGUGUAUGAAAGAGAAGGGCUCACAUGAGGAUCACCCAUGUGGUCCUAGAU [jl-ex6-4.86 jandersonlee mod] (Eterna round: R97, puzzle: Exclusion 6)”, the “apparent KD of MS2 coat protein” value was 329 nM (input ligand: FMN 200 uM) and 41.7 nM (input ligand: none).

“GAAUUAGUAGGAUAUACAUGAGGAUCACCCAUGUCUCAAACCAUGUACAGGAGAGGCUGUAGAAGGACUGAACA [Eternabot (Original) Solution 19] (Eterna round: R97, puzzle: Exclusion 3)”: the “apparent KD of MS2 coat protein” value reads like this: (input ligand: FMN 200 uM) 36 nM; (input ligand: none) 31.7 nM.

“GACCGGACGUGGUCAGGUAACAUGAGGAUCACCCAUGUAGGUCUAGGAACAAGCCUUUUGUAGGCUCGUCUUAUAAA [JR_SV3TOV1_Sub059] (puzzle: Sensor v3, turn-off variant 1)”: the “apparent KD of MS2 coat protein” value runs as follows: under setting [1], 47.5 nM; under setting [2], 36.1 nM; under setting [3], 63.6 nM.

For “GACCUCACGGUCAGGAUAUCAGAACGGAAUGCGCAUGAGAAGGGACAUGAGGAUCACCCAUGUGGGCUCGUCGC [Eddionce] (puzzle: Brourd's mod of Exclusion 4)”, the “apparent KD of MS2 coat protein” value by setting is: under setting [1], 21.6 nM; under setting [2], 13.9 nM; under setting [3], 17.9 nM.

In the case of “GACGCUAAAGGAUAUACAUGAGGAUCACCCAUGUUGAGGAAGGUUAGAUGAGGAGUAAGUAGAAGGUUAGACGA [JR_Exclu3_Sub091] (puzzle: Exclusion 3)”, the “apparent KD of MS2 coat protein” value is 32 nM under setting [1], 27.4 nM under setting [2] and 30.8 nM under setting [3].

As for “GACUAGGCAGGAUAUACAUGAGGAUCACCCAUGUGUCUGCGUUAAGCACGUGAAGACGGUAGAAGGGCCUACAC [ChP 13.04.2015 #18] (puzzle: Exclusion 3)”, the “apparent KD of MS2 coat protein” value under setting [2] came to 13 nM.

As to “GACUCUCCCGUGAGGAUAUAUGAGGCCAUGAUUCCAUAGAAGGCACAUGAGGAUCACCCAUGUCGGGCAUAGCC [Eternabot (L2) Solution 8] (Eterna round: R97, puzzle: Brourd's mod of Exclusion 4)”, the “apparent KD of MS2 coat protein” value reads like this: (input ligand: FMN 200 uM) 25.7 nM; (input ligand: none) 41.3 nM.
